Biological target: the molecule itself
Assay: FRET or BRET

B1: PCNA-WC2-AEDANS (human PCNA N107W-T185C-C27M-W28F-C62M-C81S-C148S-C135S-C162S, labelled with AEDANS at C185) (natural protein)
chain: MFEARLVQGSILKKVLEALKDLINEAMFDISSSGVNLQSMDSSHVSLVQLTLRSEGFDTYRMDRNLAMGVNLTSMSKILKSAGNEDIITLRAEDNADTLALVFEAPWQEKVSDYEMKLMDLDVEQLGIPEQEYSSVVKMPSGEFARISRDLSHIGDAVVISSAKDGVKFSASGELGNGNIKLSQCSNVDKEEEAVTIEMNEPVQLTFALRYLNFFTKATPLSSTVTLSMSADVPLVVEYKIADMGHLKYYLAPKIEDEEGS
modifications: AEDANS on the cysteine at 185 (T185C), labelled with IAEDANS
binding result: binds

From article PMC6527350 (Journal of molecular biology, 2019)
